From patent US8026218 (UNIVERSITY OF ARIZONA, dated 2011)
Read-outs that look alike come from different tables or passages of the source. Bridge positions count the residues as written; N and C are the ends. Square brackets hold non-standard residues; d marks the D form. Ends that are not written are not given here. * marks the point of attachment. O‑Bzl(CF3)2 = C-terminal bis(trifluoromethyl)benzyl ester; NH(3,5-(CF3)2-benzyl) = FC(F)(F)c1cc(CN*)cc(C(F)(F)F)c1; OBzl(3,5-(CF3)2) = FC(F)(F)c1cc(CO*)cc(C(F)(F)F)c1; Abu = CC[C@H](N)C(=O)O

Key:
human δ opioid receptor [1] = target: T1, human δ opioid receptor (human, UniProt P41143 1-372); assay: cell-based or functional assay
T1 sequence (P41143 whole entry, stated change not applied): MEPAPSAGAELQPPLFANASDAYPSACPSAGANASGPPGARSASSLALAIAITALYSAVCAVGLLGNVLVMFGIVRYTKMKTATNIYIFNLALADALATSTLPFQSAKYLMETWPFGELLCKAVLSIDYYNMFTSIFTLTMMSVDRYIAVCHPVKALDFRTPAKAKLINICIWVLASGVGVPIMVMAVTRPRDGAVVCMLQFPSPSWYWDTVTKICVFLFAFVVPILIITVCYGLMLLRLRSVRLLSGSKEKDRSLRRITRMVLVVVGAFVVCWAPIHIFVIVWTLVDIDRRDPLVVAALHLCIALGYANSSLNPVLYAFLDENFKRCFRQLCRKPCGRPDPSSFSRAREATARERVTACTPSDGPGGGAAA

rat NK1 receptor [2] = target: T2, rat NK1 receptor (rat, UniProt P14600 1-407); assay: competition vs [3H]substance P, membranes of rNK1-transfected CHO cells
T2 construct: whole, on cells; Assayed as membrane preparations of transfected CHO cells; also called rNK1; rNK-1
T2 sequence (P14600 whole entry): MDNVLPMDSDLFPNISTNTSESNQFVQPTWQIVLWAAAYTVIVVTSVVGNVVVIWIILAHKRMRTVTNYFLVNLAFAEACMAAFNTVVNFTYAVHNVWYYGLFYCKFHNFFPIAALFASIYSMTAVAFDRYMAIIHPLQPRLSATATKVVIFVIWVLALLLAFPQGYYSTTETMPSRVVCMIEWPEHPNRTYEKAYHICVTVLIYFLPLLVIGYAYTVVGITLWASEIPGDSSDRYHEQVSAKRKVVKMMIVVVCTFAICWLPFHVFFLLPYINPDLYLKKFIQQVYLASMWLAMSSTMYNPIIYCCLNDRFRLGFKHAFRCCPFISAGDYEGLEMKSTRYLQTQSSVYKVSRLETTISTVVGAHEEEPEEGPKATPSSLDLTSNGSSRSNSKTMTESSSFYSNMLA

human δ opioid receptor [3] = target: T1, human δ opioid receptor; assay: competition vs [3H]DPDPE, membranes of hDOR-transfected HN9.10 cells
rat µ opioid receptor [4] = target: T3, rat µ opioid receptor (rat, UniProt P33535 1-398); assay: competition vs [3H]DAMGO, rMOR cell membranes
T3 construct: whole, on cells; membrane preparations of the transfected cells were used; also called rMOR; MOR
T3 sequence (P33535 whole entry): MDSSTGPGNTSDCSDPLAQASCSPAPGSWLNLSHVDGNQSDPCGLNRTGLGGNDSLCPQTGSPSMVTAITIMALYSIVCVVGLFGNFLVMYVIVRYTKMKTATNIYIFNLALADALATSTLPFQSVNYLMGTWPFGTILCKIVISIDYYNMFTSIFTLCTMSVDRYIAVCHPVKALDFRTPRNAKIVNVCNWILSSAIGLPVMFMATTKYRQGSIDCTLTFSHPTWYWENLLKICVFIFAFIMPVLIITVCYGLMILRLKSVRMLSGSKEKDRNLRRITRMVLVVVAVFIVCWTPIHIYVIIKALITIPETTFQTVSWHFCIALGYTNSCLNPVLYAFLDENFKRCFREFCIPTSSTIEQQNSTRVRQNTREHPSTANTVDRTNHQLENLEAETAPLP

human δ opioid receptor [5] = target: T4, human δ opioid receptor (human, UniProt P41143 1-372); assay: competition vs [3H]DPDPE, hDOR cell membranes
T4 construct: whole, on cells; membrane preparations of the transfected cells were used; also called hDOR; DOR
T4 sequence (P41143 whole entry, stated change not applied): as the sequence (P41143 whole entry, stated change not applied) above

rat NK1 receptor [6] = target: T5, rat NK1 receptor (rat, UniProt P14600 1-407); assay: competition vs [3H]Substance P, rNK1 CHO cell membranes
T5 construct: whole, on cells; membrane preparations of the transfected cells were used; also called rNK1; rNK-1
T5 sequence (P14600 whole entry): as the sequence (P14600 whole entry) above

[7] = target: T6, µ opioid receptor of the guinea pig isolated ileum (guinea pig, UniProt P97266 1-98); assay: cell-based or functional assay
T6 sequence (P97266 whole entry): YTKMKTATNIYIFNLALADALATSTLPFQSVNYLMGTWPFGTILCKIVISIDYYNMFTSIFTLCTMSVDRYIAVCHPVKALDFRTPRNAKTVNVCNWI

guinea pig NK1 receptor [8] = target: T7, guinea pig NK1 receptor (guinea pig, UniProt P30547 1-407); assay: cell-based or functional assay
T7 sequence (P30547 whole entry): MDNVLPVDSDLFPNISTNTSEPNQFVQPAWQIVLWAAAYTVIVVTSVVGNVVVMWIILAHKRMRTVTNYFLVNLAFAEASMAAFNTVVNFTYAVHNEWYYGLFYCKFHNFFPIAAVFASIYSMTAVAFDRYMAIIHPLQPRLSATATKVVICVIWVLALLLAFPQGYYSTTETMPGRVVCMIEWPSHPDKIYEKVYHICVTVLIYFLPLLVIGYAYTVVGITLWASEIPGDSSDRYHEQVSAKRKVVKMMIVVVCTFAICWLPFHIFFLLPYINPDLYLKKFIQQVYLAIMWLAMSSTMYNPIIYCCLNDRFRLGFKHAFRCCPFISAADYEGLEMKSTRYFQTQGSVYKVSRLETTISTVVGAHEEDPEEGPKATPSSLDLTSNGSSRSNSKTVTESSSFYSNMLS

rat µ opioid receptor [9] = target: T3, rat µ opioid receptor; assay: cell-based or functional assay
human δ opioid receptor [10] = target: T4, human δ opioid receptor; assay: cell-based or functional assay; remark: listed apart in the source
human NK1 receptor [11] = target: T8, human NK1 receptor (human, UniProt P25103 1-407); assay: competition vs [3H]Substance P, hNK1 CHO cell membranes
T8 construct: whole, on cells; membrane preparations of the transfected cells were used; also called hNK1; human neurokinin-1 receptor
T8 sequence (P25103 whole entry): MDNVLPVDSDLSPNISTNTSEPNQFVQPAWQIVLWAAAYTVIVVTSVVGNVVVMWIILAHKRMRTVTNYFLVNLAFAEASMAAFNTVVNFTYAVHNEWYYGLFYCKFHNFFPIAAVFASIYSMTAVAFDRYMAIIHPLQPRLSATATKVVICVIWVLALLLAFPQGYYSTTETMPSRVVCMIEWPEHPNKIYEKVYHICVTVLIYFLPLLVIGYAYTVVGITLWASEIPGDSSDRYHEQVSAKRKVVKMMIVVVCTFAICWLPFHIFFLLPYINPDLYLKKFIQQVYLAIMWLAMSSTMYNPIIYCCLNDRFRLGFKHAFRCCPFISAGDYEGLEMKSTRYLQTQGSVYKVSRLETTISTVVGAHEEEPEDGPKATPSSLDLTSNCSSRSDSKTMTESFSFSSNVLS

human NK1 receptor [12] = target: T8, human NK1 receptor; assay: as above; remark: listed apart in the source
rat NK1 receptor [13] = target: T5, rat NK1 receptor; assay: competition vs [3H]Substance P, rNK1 CHO cell membranes; remark: listed apart in the source
human δ opioid receptor [14] = target: T4, human δ opioid receptor; assay: competition vs [3H]DPDPE, hDOR cell membranes; remark: listed apart in the source
rat µ opioid receptor [15] = target: T3, rat µ opioid receptor; assay: competition vs [3H]DAMGO, rMOR cell membranes; remark: listed apart in the source
rat µ opioid receptor [16] = target: T3, rat µ opioid receptor; assay: cell-based or functional assay; remark: listed apart in the source
human δ opioid receptor [17] = target: T4, human δ opioid receptor; assay: cell-based or functional assay; remark: listed apart in the source
human NK1 receptor [18] = target: T8, human NK1 receptor; assay: competition vs [3H]Substance P, hNK1 CHO cell membranes; remark: listed apart in the source
[19] = target: T6, µ opioid receptor of the guinea pig …; assay: cell-based or functional assay; remark: listed apart in the source
guinea pig NK1 receptor [20] = target: T7, guinea pig NK1 receptor; assay: cell-based or functional assay; remark: listed apart in the source
human δ opioid receptor [21] = target: T4, human δ opioid receptor; assay: cell-based or functional assay; remark: listed apart in the source
human δ opioid receptor [22] = target: T4, human δ opioid receptor; assay: competition vs [3H]DPDPE, hDOR cell membranes; remark: listed apart in the source
rat NK1 receptor [23] = target: T5, rat NK1 receptor; assay: competition vs [3H]Substance P, rNK1 CHO cell membranes; remark: listed apart in the source

H-Y[dA]GFMPLW-{NH(3,5-(CF3)2-benzyl)} (also: TFA salt, TFA salt; also called TY027; TY27) [H-Tyr-D-Ala-Gly-Phe-Met-Pro-Leu-Trp-NH-3,5-Bzl(CF3)2]
[35S]GTPγS binding EC50 (human δ opioid receptor [1]): 8.6 nM
[35S]GTPγS binding Emax (human δ opioid receptor [1]): 58%
[35S]GTPγS binding LogEC50 (human δ opioid receptor [1]): -8.1
Ki (rat NK1 receptor [2]): 7.3 nM
LogIC50 (rat NK1 receptor [2]): -7.6
LogIC50 (human δ opioid receptor [3]): -8.8

B1: Tyr[DCysGlyPheDCys]ProLeuTrpNHBn(CF3)2 (peptide)
peptide: Y[dC]GF[dC]PLW-{NH(3,5-(CF3)2-benzyl)}
modifications: disulfide 2-5
notes: cyclic; also called TY037; [D-Cys2, D-Cys5]TY027
Ki (rat µ opioid receptor [4]): 52 nM
LogIC50 (rat µ opioid receptor [4]): -6.9
Ki (human δ opioid receptor [5]): 7.8 nM
LogIC50 (human δ opioid receptor [5]): -7.8
LogIC50 (rat NK1 receptor [6]): -6.9
GPI (µ) IC50 [7]: 280 nM
GPI Substance P antagonist Ke (guinea pig NK1 receptor [8]): 4.7 nM
[35S]GTPγS binding EC50 (rat µ opioid receptor [9]): 53 nM
[35S]GTPγS binding Emax (rat µ opioid receptor [9]): 12%
[35S]GTPγS binding LogEC50 (rat µ opioid receptor [9]): -7.3
[35S]GTPγS binding EC50 (human δ opioid receptor [10]): 14 nM
[35S]GTPγS binding Emax (human δ opioid receptor [10]): 22%
[35S]GTPγS binding LogEC50 (human δ opioid receptor [10]): -7.9

Y[dA]GFW-{OBzl(3,5-(CF3)2)} (also called NP36) [Tyr-D-Ala-Gly-Phe-Trp-O-3′,5′(CF3)2-Bzl]
Ki (human NK1 receptor [11]): 0.0005 nM

B2: DmtDAlaGlyPheNleProLeuTrpNHBn(CF3)2 (peptide)
peptide: YAGFXPLW
modifications: Dmt at 1 (written Y); D-Ala at 2; Nle at 5 (written X); C-terminal NH-3,5-Bzl(CF3)2 amide
notes: also called TY050
Ki (human NK1 receptor [12]): 0.075 nM

B3: Tyr[DCysGlyPheCys]ProLeuTrpNHBn(CF3)2 (peptide)
peptide: Y[dC]GFCPLW-{NH(3,5-(CF3)2-benzyl)}
modifications: disulfide 2-5
notes: cyclic; also called TY039; [D-Cys2, Cys5]TY027
Ki (rat µ opioid receptor [4]): 200 nM
LogIC50 (rat µ opioid receptor [4]): -6.4
Ki (human δ opioid receptor [5]): 11 nM
LogIC50 (human δ opioid receptor [5]): -7.6
LogIC50 (rat NK1 receptor [6]): -5.8
[35S]GTPγS binding EC50 (rat µ opioid receptor [9]): 118 nM
[35S]GTPγS binding Emax (rat µ opioid receptor [9]): 17%
[35S]GTPγS binding LogEC50 (rat µ opioid receptor [9]): -6.9
[35S]GTPγS binding EC50 (human δ opioid receptor [10]): 0.9 nM
[35S]GTPγS binding Emax (human δ opioid receptor [10]): 37%
[35S]GTPγS binding LogEC50 (human δ opioid receptor [10]): -9

Y[dA]GF[Abu]W-{O‑Bzl(CF3)2} (also called NP33) [Tyr-DAla-Gly-Phe-α-Abu-Trp-O-Bzl(CF3)2]
Ki (rat NK1 receptor [13]): 1.2 nM
Ki (human δ opioid receptor [14]): 1.6 nM
Ki (rat µ opioid receptor [15]): 11.4 nM
GTP EMax (rat µ opioid receptor [16]): 32
GTP EMax (human δ opioid receptor [17]): 43
Ki (human NK1 receptor [18]): 0.12 nM

YAGFMPLW (D-Ala at 2; Met(O) at 5; C-terminal O-3,5-Bzl(CF3)2 ester, also called TY023) [TyrDAlaGlyPheMet(O)ProLeuTrpOBn(CF3)2]
GPI/LMMP IC50 [19]: 154 nM
GPI/LMMP SP antagonist Ke (guinea pig NK1 receptor [20]): 7.8 nM
GTP binding Emax (human δ opioid receptor [21]): 52.8%
Ki (human δ opioid receptor [22]): 5.1 nM
IC50 (rat NK1 receptor [23]): 54.5 nM

Y[dA]GFAW-{O‑Bzl(CF3)2} (also called NP31) [Tyr-DAla-Gly-Phe-Ala-Trp-O-Bzl(CF3)2]
Ki (rat NK1 receptor [13]): 8.6 nM
Ki (human δ opioid receptor [14]): 1.2 nM
Ki (rat µ opioid receptor [15]): 3.6 nM
GTP EMax (rat µ opioid receptor [16]): 50
GTP EMax (human δ opioid receptor [17]): 91

Y[dA]GFLW-{O‑Bzl(CF3)2} (also called NP37) [Tyr-DAla-Gly-Phe-Leu-Trp-O-Bzl(CF3)2]
Ki (rat NK1 receptor [13]): 0.29 nM
Ki (human δ opioid receptor [14]): 2.9 nM
Ki (rat µ opioid receptor [15]): 23.3 nM
GTP EMax (rat µ opioid receptor [16]): 54
GTP EMax (human δ opioid receptor [17]): 60
Ki (human NK1 receptor [18]): 0.09 nM

Y[dA]GFMW-{O‑Bzl(CF3)2} (also called NP38) [Tyr-DAla-Gly-Phe-Met-Trp-O-Bzl(CF3)2]
Ki (rat NK1 receptor [13]): 0.089 nM
Ki (human δ opioid receptor [14]): 0.6 nM
Ki (rat µ opioid receptor [15]): 3.3 nM
GTP EMax (rat µ opioid receptor [16]): 51
GTP EMax (human δ opioid receptor [17]): 36
Ki (human NK1 receptor [18]): 0.009 nM

Y[dA]GFPW-{O‑Bzl(CF3)2} (also called NP39) [Tyr-DAla-Gly-Phe-Pro-Trp-O-Bzl(CF3)2]
Ki (rat NK1 receptor [13]): 1.6 nM
Ki (rat µ opioid receptor [15]): 14.8 nM
GTP EMax (rat µ opioid receptor [16]): 47
GTP EMax (human δ opioid receptor [17]): 56
Ki (human NK1 receptor [18]): 0.1 nM

Y[dA]GF[dA]W-{O‑Bzl(CF3)2} (also called NP40) [Tyr-DAla-Gly-Phe-D-Ala-Trp-O-Bzl(CF3)2]
Ki (rat NK1 receptor [13]): 2.4 nM
Ki (human δ opioid receptor [14]): 3.9 nM
Ki (rat µ opioid receptor [15]): 2.8 nM
GTP EMax (rat µ opioid receptor [16]): 19
GTP EMax (human δ opioid receptor [17]): 89
Ki (human NK1 receptor [18]): 0.011 nM
